Reference: paper PMC6516834

Assays:
[1] = target: end-labeled Ndc80 complex Nuf2 S2C Spc25 S154C (cysteine-light, concurrently labeled with Cy3 and Alexa Fluor 647, for single molecule FRET) (S. cerevisiae) (UniProt P40460); assay: single molecule three-color TIRF co-localisation; end-labeled Ndc80 complex and GFP-MIND pre-incubated 1:10 for 15 min at room temperature, then tethered by anti-penta-His antibody to lipid-coated coverslips; co-localisation of GFP with Cy3 and Alexa Fluor 647
[2] = target: Ndc80-MIND-GFP co-complex (S. cerevisiae) (UniProt P40460); assay: single molecule TIRF microscopy (residence time on microtubules); as a1, with free Spc24/Spc25 dimer (wild type or mutant) added in trans: sixtyfold excess over Broccoli-GFP, tenfold excess over Ndc80-MIND-GFP
[3] = target: taxol-stabilized microtubules (bovine brain tubulin) (bovine) (UniProt Q6B856); assay: single molecule TIRF microscopy (residence time on microtubules); fluorescent complexes in solution on taxol-stabilized microtubules; standard BRB80 buffer; mean residence time, error by bootstrapping

free Spc24/Spc25 dimer, sequence (Q04477 whole entry): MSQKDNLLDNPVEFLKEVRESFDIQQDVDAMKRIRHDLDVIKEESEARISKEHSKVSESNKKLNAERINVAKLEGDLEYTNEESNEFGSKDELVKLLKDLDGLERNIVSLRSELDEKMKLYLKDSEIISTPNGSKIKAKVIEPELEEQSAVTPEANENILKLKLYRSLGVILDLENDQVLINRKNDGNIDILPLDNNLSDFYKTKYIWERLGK
free Spc24/Spc25 dimer, sequence (P40014 whole entry): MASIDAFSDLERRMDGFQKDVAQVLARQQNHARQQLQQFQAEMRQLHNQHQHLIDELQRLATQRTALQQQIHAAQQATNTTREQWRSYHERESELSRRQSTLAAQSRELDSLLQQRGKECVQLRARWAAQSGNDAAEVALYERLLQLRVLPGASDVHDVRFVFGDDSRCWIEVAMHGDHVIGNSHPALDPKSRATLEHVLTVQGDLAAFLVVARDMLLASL

mean residence time of the Ndc80-MIND-GFP co-complex on microtubules with a tenfold excess of the binder [2]	Substance	other results
	MIND complex carrying an N-terminal FLAG tag on Nsl1 and a C-terminal GFP on Mtw1 (from UniProt P39731 1-289; Q12143 1-216; P40568 1-576)	percent of the end-labeled Ndc80 complexes in co-complex with MIND (tenfold excess of GFP-MIND) [1]: 33%
4.1 s	free Spc24/Spc25 dimer (from UniProt Q04477 1-213; P40014 1-221) (complex)	
4.2 s	Spc24/Spc25 V159D dimer (from UniProt Q04477 1-213; P40014 1-221) (complex)	
	Ndc80-MIND-GFP co-complex (from UniProt P40460 1-691; P33895 1-451; Q04477 1-213; P40014 1-221; P39731 1-289; P40568 1-576; Q12143 1-216)	mean residence time on microtubules [3]: 9.8 s
